Measurements taken from patent US20230071422A1 (BEIJING WISDOMAB BIOTECHNOLOGY, published 2023).
Blank lines part the entries; values can stand above or below the binder they belong to.

Assays:
[1] = molecular target: T1, extracellular region of human CD3E with C-terminal His tag (hCD3E-his) (human (Homo sapiens), UniProt P07766 23-126); test: SPR, Biacore X100; antibody captured by anti-human IgG (Fc) on CM5, hCD3E-his as analyte, 1:1 model, 25 C
T1 construct: Recombinant, expressed in HEK293 cells
T1 sequence (P07766 other isoform, or with tags, fused parts or gaps limits assumed): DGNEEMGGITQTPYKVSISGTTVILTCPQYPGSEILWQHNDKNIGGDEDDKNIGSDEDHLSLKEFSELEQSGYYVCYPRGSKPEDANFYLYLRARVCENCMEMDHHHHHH
Description: (§1) The chip surface was regenerated by injecting 3M MgCl₂ solution at 10 μL/min for 30 s. Association rates (Kₒₙ) and dissociation rates (Koff) were calculated from association and dissociation sensorgrams fitted by a 1:1 binding model using Biacore X100 evaluation software version 2.0.1. The dissociation equilibrium constant (KD) was calculated as the ratio Koff/Kₒₙ.

[2] = molecular target: T2, extracellular region of human CD123 subtype 1 with C-terminal His tag (hCD123-SP1-his) (human (Homo sapiens), UniProt P26951 19-305); test: SPR, Biacore X100; antibody captured by anti-human IgG (Fc) on CM5, hCD123-SP1-his as analyte, 1:1 model, 25 C
T2 construct: Recombinant, expressed in HEK293 cells
T2 sequence: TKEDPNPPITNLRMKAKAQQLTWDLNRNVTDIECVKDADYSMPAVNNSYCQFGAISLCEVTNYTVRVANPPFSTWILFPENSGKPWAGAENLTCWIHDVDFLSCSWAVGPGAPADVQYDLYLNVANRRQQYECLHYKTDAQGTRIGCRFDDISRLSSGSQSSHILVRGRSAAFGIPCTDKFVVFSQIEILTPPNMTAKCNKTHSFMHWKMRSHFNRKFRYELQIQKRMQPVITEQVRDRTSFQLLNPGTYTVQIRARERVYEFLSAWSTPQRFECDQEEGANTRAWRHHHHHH
Description: (§2) The affinity of anti-CD123 antibodies was determined by surface plasmon resonance using Biacore X100. Related reagents and consumables such as Amino Conjugation Kit (BR-1000-50), Human Antibody Capture Kit (BR-1008-39), CM5 Chip (BR100012) and 10×HBS-EP (BR100669) buffer with pH 7.4 were all purchased from GE healthcare. According to the instructions in the kits, 1-Ethyl-3-(3-dimethylaminopropyl) carbodiimide hydrochloride (EDC) and N-Hydroxysuccinimide (NHS) was used to activate the surface of the carboxylated CM5 chip, and the anti-human IgG (Fc) antibody (capture antibody) was diluted to 25 μg/mL with 10 mM, pH5.0 sodium acetate, followed by an injection with a flow rate at 10 μL/min to achieve a coupling volume of approximately 10,000 response units (RU). Following the injection of the capture antibody, 1 M ethanolamine was injected to block unreacted groups. […] The chip surface was regenerated by injecting 3M MgCl₂ solution at 10 μL/min for 30 s. Association rates (Kₒₙ) and dissociation rates (Koff) were calculated from association and dissociation sensorgrams fitted by a 1:1 binding model using Biacore X100 evaluation software version 2.0.1. The dissociation equilibrium constant (KD) was calculated as the ratio Koff/Kₒₙ.

[3] = molecular target: T1, extracellular region of human CD3E with …; test: SPR, Biacore X100; antibody captured by anti-human IgG (Fc), hCD3E-his as analyte, 1:1 model
Description: as §1

[4] = molecular target: T3, extracellular region of cynomolgus monkey CD3E with C-terminal His tag (mfCD3E-his) (cynomolgus monkey (Macaca fascicularis), UniProt Q95LI5 22-117); test: SPR, Biacore X100; antibody captured by anti-human IgG (Fc), mfCD3E-his as analyte, 1:1 model
T3 construct: Recombinant, expressed in HEK293 cells
T3 sequence: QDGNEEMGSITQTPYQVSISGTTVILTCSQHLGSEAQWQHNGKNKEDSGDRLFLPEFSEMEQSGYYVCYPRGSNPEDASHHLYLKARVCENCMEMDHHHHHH
Description: as §1

[5] = molecular target: T2, extracellular region of human CD123 …; test: phage display, solid-phase screening on hCD123-SP1-His, three rounds
[6] = molecular target: T4, CD123 on the surface of CD123-positive cells (KG-1a, MV-4-11) (human, UniProt P26951 19-378); test: flow cytometry titration on MV-4-11 cells, goat anti-human IgG-FITC secondary antibody
T4 construct: whole, on cells; Endogenous CD123 on KG-1a (human acute myeloid leukemia) and MV-4-11 (human acute monocytic leukemia) cells; also called cell surface CD123 antigen; CD123 on the surface of MV-4-11 cells
Description: (§3) MV-4-11 cells at the logarithmic phase of growth were used and resuspended to 2×10⁶ cells/well with PBS buffer containing 1% BSA after centrifugation. MV-4-11 cells were plated in a 96-well V-bottom plate at 100 μL/well, and the supernatant was removed after centrifugation. […] The antibodies were added to the wells containing cells and incubated at 4° C. for 1 hour. Then, the plate was washed three times with 200 μL PBS buffer. The goat anti-human IgG-FITC secondary antibody (ZF-0308, ZSGB-BIO) was added to the wells (100 μL/well), and incubated at 4° C. for 30 minutes in the dark. Then, the cells were washed three times with 200 μL of PBS buffer, and resuspended in 100 μL of PBS buffer to detect FITC channel by flow cytometer (ACEA, Novocyte).

[7] = molecular target: T2, extracellular region of human CD123 …; test: SPR, Biacore X100; antibody captured by anti-human IgG (Fc), hCD123-SP1-his as analyte, 1:1 model
Description: as §2

[8] = molecular target: T2, extracellular region of human CD123 …; test: as above; remark: listed apart in the source
Description: as §2

[9] = molecular target: T4, CD123 on the surface of CD123-positive …; test: flow cytometry on MV-4-11 cells, titration from 100 nM, goat anti-human IgG-FITC; MV-4-11 cells, flow cytometry titration (apparent KD)
Description: as §3, with “MV-4-11” for “MV-4-11 cells at the logarithmic phase of growth were used and resuspended to 2×10⁶ cells/well with PBS buffer containing 1% BSA after centrifugation. MV-4-11”

B2: S8F3VH+C6VK (antibody, V domains shown)
VH: QVQLQQSGAELAKPGASVKISCKASGYTFTSYDVSWVKQRPGQGLEWIGWVYPVDGSTKFNEKFKGKATLTADRSSSTAYMQLTSLTSEDSAVYFCARLRYGNYGDAMDDWGQGTSVTVSA
VL: DVVMTQTPVSLSVSLGDQVSISCRPSQSLVHNNGNTYLSWYLQKPGQSPHPLIYKVSNRFSGISDRFSGSGSGTDFTLKISRVEPDDLGVYYCGQGTQYPFTFGSGTKLEIK
notes: Whole antibody: variable regions fused to a human heavy chain constant region and a light chain constant region; also called recombinant anti-CD123 monoclonal antibody
Kd [2]: 8.03 nM | koff [2]: 0.00365 s⁻¹ | kon [2]: 455000 M⁻¹ s⁻¹

B6: S8F3VH+L27E5 (antibody, V domains shown)
VH: QVQLQQSGAELAKPGASVKISCKASGYTFTSYDVSWVKQRPGQGLEWIGWVYPVDGSTKFNEKFKGKATLTADRSSSTAYMQLTSLTSEDSAVYFCARLRYGNYGDAMDDWGQGTSVTVSA
VL: DIVMTQTPLSLSVTPGQPASISCKSSQSLVHSNDNTYLTWYLQKPGQSPQLLIYKVSNRFSGVPDRFSGSGSGTDFTLKISRVEAEDVGVYYCGQGTQYPFTFGQGTKLEIK
notes: built from the label (S8F3VH heavy chain variable region with the L27E5 light chain)
Kd [7]: 3.32 nM | koff [7]: 0.000146 s⁻¹ | kon [7]: 43800 M⁻¹ s⁻¹

B7: anti-CD3E monoclonal antibody H3B8+L27E5 (antibody, V domains shown)
VH: EVQLVESGGGLVQPGGSLRLSCAASGFTFSNAWMHWVRQAPGKGLEWVGQIKDKSNNYATYYADAVKGRFTISRDDSKNSLYLQMNSLKTEDTAVYYCRYVHYGVRFFYTMDVWGQGTTVTVSS
VL: DIVMTQTPLSLSVTPGQPASISCKSSQSLVHSNDNTYLTWYLQKPGQSPQLLIYKVSNRFSGVPDRFSGSGSGTDFTLKISRVEAEDVGVYYCGQGTQYPFTFGQGTKLEIK
notes: captured by an anti-human IgG (Fc) antibody in SPR; also called WM03-C6 humanized monoclonal antibody
Kd [1]: 47.6 nM | koff [1]: 0.000993 s⁻¹ | kon [1]: 20800 M⁻¹ s⁻¹ | Kd [3]: 12.7 nM | koff [3]: 0.000711 s⁻¹ | kon [3]: 56100 M⁻¹ s⁻¹ | Kd [4]: 5.26 nM | koff [4]: 0.000649 s⁻¹ | kon [4]: 123000 M⁻¹ s⁻¹

B8: H7A3+L27E5 (antibody, V domains shown)
VH: QVQLQQSGAELAKPGASVKISCKASGYTFTSYDVSWVKQRPGQGLEWIGWVYPVDGSTKFNEKFKGKATLTADRSSSTAYMQLTSLTSEDSAVYFCARLTYGDFGDAMDYWGQGTSVTVSA
VL: DIVMTQTPLSLSVTPGQPASISCKSSQSLVHSNDNTYLTWYLQKPGQSPQLLIYKVSNRFSGVPDRFSGSGSGTDFTLKISRVEAEDVGVYYCGQGTQYPFTFGQGTKLEIK
notes: Whole antibody: H7A3 variable region fused to a human heavy chain constant region, combined with the L27E5 light chain; also called S8F3 heavy chain mutant H7A3
Kd [7]: 0.246 nM | koff [7]: 6.64e-05 s⁻¹ | kon [7]: 270000 M⁻¹ s⁻¹ | Kd [8]: 0.226 nM | koff [8]: 6.89e-05 s⁻¹ | kon [8]: 305000 M⁻¹ s⁻¹

Further lines, results first:

Kd [1]: 10.6 nM | koff [1]: 0.000288 s⁻¹ | kon [1]: 27200 M⁻¹ s⁻¹
B1: monoclonal antibody WM03-C6 (antibody, V domains shown)
VH: EVQLVETGENLVQPGKSLRLTCATSGFSFSNAWMHWIRQSPEKQLEWVAQIKDKSNNYATYYAESVNGRFTISRDDSKSSIYLHMDNLKEEDSAIYYCRYVHYGVRFFYTMDVWGQGTSVTVSS
VL: DVVMTQTPVSLSVSLGDQVSISCRPSQSLVHNNGNTYLSWYLQKPGQSPHPLIYKVSNRFSGISDRFSGSGSGTDFTLKISRVEPDDLGVYYCGQGTQYPFTFGSGTKLEIK
notes: also called rat monoclonal antibody WM03-C6; 20E5-F10 of WO 2016/116626 A1

Kd [3]: 0.65 nM | Kd [4]: 0.935 nM
B3: control bispecific antibody Xmab14045 (bispecific antibody)
heavy: QVQLQQSGAEVKKPGASVKVSCKASGYTFTDYYMKWVKQSHGKSLEWMGDIIPSNGATFYNQKFKGKATLTVDRSTSTAYMELSSLRSEDTAVYYCARSHLLRASWFAYWGQGTLVTVSSASTKGPSVFPLAPSSKSTSGGTAALGCLVKDYFPEPVTVSWNSGALTSGVHTFPAVLQSSGLYSLSSVVTVPSSSLGTQTYICNVNHKPSDTKVDKKVEPKSCDKTHTCPPCPAPPVAGPSVFLFPPKPKDTLMISRTPEVTCVVVDVKHEDPEVKFNWYVDGVEVHNAKTKPREEEYNSTYRVVSVLTVLHQDWLNGKEYKCKVSNKALPAPIEKTISKAKGQPREPQVYTLPPSREEMTKNQVSLTCDVSGFYPSDIAVEWESDGQPENNYKTTPPVLDSDGSFFLYSKLTVDKSRWEQGDVFSCSVMHEALHNHYTQKSLSLSPGK
scFv: not shown
light: not shown

binding result [5]: binds
B4: anti-human CD123 single chain fragment variable S8F3 (scFv)
scFv: QVQLQQSGAELAKPGASVKISCKASGYTFTSYDVSWVKQRPGQGLEWIGWVYPVDGSTKFNEKFKGKATLTADRSSSTAYMQLTSLTSEDSAVYFCARLRYGNYGDAMDDWGQGTSVTVSAGGGGSGGGGSGGGGSDVVMTQTPVSLSVSLGDQVSISCRPSQSLVHNNGNTYLSWYLQKPGQSPHPLIYKVSNRFSGISDRFSGSGSGTDFTLKISRVEPDDLGVYYCGQGTQYPFTFGSGTKLEIK

EC50 (read off the curve) [6]: ~3 nM | Kd [7]: 0.22 nM | koff [7]: 5.14e-05 s⁻¹ | kon [7]: 234000 M⁻¹ s⁻¹ | Kd [8]: 0.244 nM | koff [8]: 7.67e-05 s⁻¹ | kon [8]: 314000 M⁻¹ s⁻¹ | Kd [9]: 3.1 nM
B5: anti-CD123 monoclonal antibody H7A3-h2-m5+L27E5 (antibody, V domains shown)
VH: QVQLVQSGAEVKKPGASVKVSCKASGYTFTSYDVSWVRQAPGQRLEWMGWVYPVDGSTKFNEKFKGRVTLTADRSSSTAYMELSSLRSEDTAVYYCARLTYGDFGDAMDYWGQGTLVTVSS
VL: DIVMTQTPLSLSVTPGQPASISCKSSQSLVHSNDNTYLTWYLQKPGQSPQLLIYKVSNRFSGVPDRFSGSGSGTDFTLKISRVEAEDVGVYYCGQGTQYPFTFGQGTKLEIK
notes: Expressed as a whole antibody of human IgG1 with the common light chain L27E5; also called H7A3 humanized version H7A3-h2-m5
